The source of these data is the nanobody polyreactivity screen of Harvey et al. (2022).

The nature of the data set: yeast display, Sf9 membrane polyspecificity reagent, FACS + sequencing; frameworks hold sequencing errors. The gist of the method: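 Polyreactivity labels are assigned by the sorting gate from which each nanobody was recovered. The gates were low and high (top ~1%), set on anti-HA fluorescence for expression and streptavidin fluorescence for reagent binding. Before sorting, galactose-induced (36–48 hours) yeast display cells were stained for 1 hour at 4 °C with 10% biotinylated, detergent-solubilized Sf9 membrane reagent.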
For “QVQLVESGGGLVQAGGSLRLSSAASGSTFFLYGMRWYSQPPGKERQLVAAITWNGGSTSYADSVKGRFTISRDIAKFTVYLQMNSLKPEDTAVYYWAADYYGYFSTAYEYWGQGTQVTVSS”, the “polyreactivity (PSR sort gate)” value was “low polyreactivity”. As to “QVQLVESGGGLVQAGGSLRLSCAASGITFRRNAMGWYRQAQGKESQLVAAITSRGGSTYYADSVKWRFTISRDNAKNTVYLQMISMKPEDTAVYYCNAGGVDRVDRDYWGQGTQVTVSS”, the “polyreactivity (PSR sort gate)” value is on record as “high polyreactivity”. The result for “QVQLEESGGGLVQAGGSLRLSCAASGIIFPRNAMGWYRQAPGKERELVAAITNTGSTKYADSVKGRFTISRDNAKNSVYLHMNSLKPEDTAVYYCAKELGSVPSPSLYDYWGQGTQVTVSS” reads “low polyreactivity”; that for “QVQLVESGGGLVQAGGSLRLSCAASGSTFDWYAMGWYRQAPGKERELVARIRWSGGSTYYADSVKGRFTISRDNAKNTVYLQMNSLKPEDTAVYYCAARTQTWPQYGYWGQGTQVTVSS”, “high polyreactivity”. Turning to “QVQLVESGGGLVQAGGSLRLSCAASGFIFRYYAMGWARQAPAKERELVAAISWSGTRTFYADSVKARFTISRDNAKNTVYLQMNSLKPEDTAVYYCAAETTGYDSYIQYEYWGQGTQVTVSS”, the “polyreactivity (PSR sort gate)” value is listed as “high polyreactivity”. On to “QVQLVESGGGLVQAGGSLRLSCAASGIIFIKYAMGWYRQAPGKERELVAAITSGGSTHYADSVKGRFTISRDNAKNTVYLQMNSLKPEDTAVYYCNADILRHVAYFKDRYQAGSYWGQGTQVTVSS”, for which the “polyreactivity (PSR sort gate)” value is listed as “low polyreactivity”.

As to “QVQLVESGGGLVQAGGSLRLSCAASGRIFKYYAMGWYRPAPGKERELVAAISRSSGRTYYADSVKGRFTISRDNAKNTVYFQMNSLKPEDTAVYYCNALPSTVYLTYDYWGQGTQVTVSS”, the “polyreactivity (PSR sort gate)” value is reported as “high polyreactivity”. On to “QVQLVESGGGLVQAGGSLRLSCAASGSTFRIYTMGWYRQAPGKERELVAGISSSGNTNYADSVKGRFTISRDNAKNTVYLQMNSLKPEDTAVYYCNAASLKFTSPVRFGYWGQGTQVTVSS”, for which the “polyreactivity (PSR sort gate)” value is reported as “high polyreactivity”. Take “QVQLVESGGGLVQAGGSLRLSCAASGITFGYYAMGWYRQAPGKERELVAAISSGGRTYYADSVKGRFTIARDNAKNTVYLQMNSLKPEDTGVYYCAVVARHPSRMDYWGQGTQVTVSS”: the “polyreactivity (PSR sort gate)” value is “high polyreactivity”.

With “QVQLVESGGGLVQAGGSLRLSCAASGITFGDNAMGWYRQAPGKERELVAAISSGGSTDYADSVKGRFTISRDNAKNTVYLQMNSLNPEDTAVYYCAVDWVSVPEYDYWGQGTQVTVSS”, the “polyreactivity (PSR sort gate)” value is given as “low polyreactivity”.

In the case of “QVQLGESGGGLVQAGGSLRLSCAASGSTIRRYTMGWYRQAPGKERELDAAITGSGGSTYYADSVKGRFTISRDNAKNTVYLQMNSLKPEDPAVYYCAAPPWRRIVGGIYDYWGQGTQVTVSS”, the “polyreactivity (PSR sort gate)” value was “high polyreactivity”. In the case of “QVQLVESGGGLVQAGGSRRLSCAASGSTFYGYAMGWYRQAPGKERELVAAIRRIGGTTYADSVKGRFTLSRDNAKNTVYLQMNSLKPEDTAVYYCAAYGFSYRYRYYYWGQGTQVTVSS”, the “polyreactivity (PSR sort gate)” value was “high polyreactivity”. The result for “QVQLVESGGGLVQAGGSLRLSCAASGIIFALNAMGWYRQAPGKERELVATIDSTSGSTYYADSVKGRFTISRDNAKNTVYLQMNSLKPEDTAVYYCAVVHAQSAPMDYWGQGTQVTVSS” reads “low polyreactivity”; that for “QVQLVESGGGLVQAGGSLRLSCAASGSIFSYYAMGWYRQAPGKERELFADINLDDGRTYYADSVKGRFTISRDNAKNTVYLQMNSLKPEDTAVYYCAADEFYSFRYLFGPTFDYWGQGTQVTVSS”, “high polyreactivity”. For the sequence “QVQLVESGGGLVQAGGSLRLSCAASGSIFRKYAMGWYRQATGKERELVAVITTDGSTNYADSVKGRFTISRDNAKNTVYLQMNSLKPEDTAVYYCNAVRSSIGTDNDYWGQGTQVTVSS”, the “polyreactivity (PSR sort gate)” value is recorded as “low polyreactivity”.

For “QVQLVESGGGLVQAGGSLRLSCAASGFTFAAYAMGWSRQAPGKERELVAAISRSGGSTYYADSVKGRFTISRDNAKNTVYLQMNSLKPEDTAVYYCAAYGWPKYNYWGQGTQVTVSS”, the “polyreactivity (PSR sort gate)” value was “high polyreactivity”.

Turning to “QVQLVESGGRLVQAGGSLRLSCAASGFTFGHYAMGWSRPARGKEWELVAAIRWSGGSTYYADSVKGRFTISRDNAKNTVYLQMNSLKPEDTAVYYCAARRFDGFEYDYWGDGTQVTVSS”, the “polyreactivity (PSR sort gate)” value is “low polyreactivity”. “QVQLVESGGGLVQAGGSLRLSCAASGRTFDLYAMGWDRQAPGKERELVAAITKGGGSTYYADSVKGRFTISRDNAKNTVYLQMNSLKPEDSAVYYCAARKYKRIYRISSGIGYYWGHGTQVTVSS”: the “polyreactivity (PSR sort gate)” value is “high polyreactivity”. The result for “QVQLVESGGGLVQAGGSLRLSCAASGFTFVYYAMGWYRQAPGKEREMVAGISSSDTTSYADSVKGRFTISRDNAKNTVYLQMNSLKPEDTEVYYCATRYWRRYPSTWSYPYYYWGQGTQVTVSS” reads “high polyreactivity”; that for “QVQLVESGGGLVQAGGSLRLSCAASGFIFSNNAMGWYIEAPGKERELVAVINGGGSTYYADSVKGRFTISRDNAKNTVYLQMNSLKPEDTAVYYCARKSWPKEGRVDPGYDYWGQGTQVTVSS”, “low polyreactivity”; that for “QVQLVESGGGLVQAGGSLRLSCAASGLTFYQYTMGWYRQAPGKERELVAAISRRGGSTYYADSVKGRFTISRDNAKNTVYLQMNSLKPEDTAVYYCAARALRYSRDFDYWGQGTQVTVSS”, “high polyreactivity”. On to “QVQIVESGGGLVQAGGSLRLSCAASGRTFRGNVMGWSRQAPGKEREFVAAITRSGSNTYYADSVKGRFTISRDNAKNTVYLQMNSLKPEDTAVYYCAKSVLLGYKRHDSWGQGTQVTVSS”, for which the “polyreactivity (PSR sort gate)” value was “high polyreactivity”.

As to “QVQLVESGGGLVQAGGSLRLRCAASGSIFRYNPMGWYRQAPGKERELVAPISWSGGHTYYADSVKGRFTISRDNAKNTDYLQLNSLKPEDTAVYYWATVPRKTPGNAELDYWGQGTQVTVSS”, the “polyreactivity (PSR sort gate)” value is reported as “high polyreactivity”. “QVQLVESGGGLVQAGGSLRLSCAASGSIFTPYAMGWYRQAPGKERELVAAISDSVGSTYYADSVKGRFTISRDNAKNTVYLQMNSLKPEDTAVYYCAAEYWVYDSYWFDYDYWGQGTQVTVSS”: the “polyreactivity (PSR sort gate)” value is “high polyreactivity”.

Regarding “QVQLVESGGGLVEAGGSLRLSCAASASIFGLNAMGWYRQAPGKEREFVAAISWSDGSTYYADSVKGRFTISRDNAKNTVYLQMNSLKPEDTAVYYCSKATEYYAESDDYDYWGQGTQVTVSS”, the “polyreactivity (PSR sort gate)” value is on record as “low polyreactivity”. For the sequence “QVQLVESGGGIVQAGGRLRLSCAASGSTFFKYARGWYRQAPGKERELVATMSGTGGRTYYADSVKGRFTISRDNAKNTVYLQMNSLKPEDTAVYYCAAGIYRPFFYTLDYWGQGTQVTVSS”, the “polyreactivity (PSR sort gate)” value is recorded as “low polyreactivity”.

Take “QVQLVESGGGLVQAGGSLRLSCAASGSTFKKYAMGWYRLAPGKERELVAAITGSGGRTYYADSVKGRFTISRDNAKNTVDLQMNSLKPEDTAVYYCAKLNNYGYDYWGQGTQVTVSS”: the “polyreactivity (PSR sort gate)” value is “high polyreactivity”. Turning to “QVHLVESGGGLVQAGGSLRLSCAASGRTFYGNAMGWYRQATGKERELVAAINRDGGTYYADSVKGRFTISRDNAKNTVYLQMNSLKTEDTAVYYCNAVKRGIRYGYWGQGTQVTVSS”, the “polyreactivity (PSR sort gate)” value was “high polyreactivity”. With “QVQLVESAGGLVQAGGSLRLSCAASGNTFDPNAMGWYRQAPGKEREFVAAISTIGSSTYYADSVKGRFTISRDNAKYTVYLQMNSLNPEVTAVYYCAKGIYVVYGIDDYWGQGTQVTLSS”, the “polyreactivity (PSR sort gate)” value is given as “low polyreactivity”. In the case of “QVQLVESWGGLVQAGGSLRLSCAASGRTFYSNAMGWYRQAPGKERELVAAITSTDDSTYYADSVKGRFTISRDNAKNTVYLQMNSLKPEDTAVYYCNTDGLIAIRGLWWVEYDYWGQGTQVTVSS” it was “low polyreactivity”.

As for “QVQLEESGRGLVQAGGSLRLSCAASVSTCCENAMGWYRQAPGKERELVAAISWGGGSKYYADSVKGRFTISRDNAMNTVYLQMNSLKQEDTAVYYCNADVFDDYGYFESDYWGQGTQVTVSS”, the “polyreactivity (PSR sort gate)” value is reported as “low polyreactivity”. Regarding “QVQLVESGGGLVQAGGSLRLSCAASGRTFFVYAMGWYRPAPGKERELVASITLSGGSTYYADSVKGRFTISRDKAKNTVYLQINSLKREDTAGYYCAKGWSRDNDLEREDEYWGHGTQVTVSS”, the “polyreactivity (PSR sort gate)” value is given as “low polyreactivity”. The result for “QVQRVESGGGLVQAGGSLRLSCAASGSIFGPNTIGWSRQAPGKERDLVAAITRSGGSTYYADSVKGRFTISRDNAKNTVYLQMNSLKPEDTAVYYCAVGDGFEYDWGQGTQVTVSS” reads “low polyreactivity”; that for “QVQLVESGGGLVQAGGSLRLSCAASGFILVGYAMGWYRQARGKERELVAAITSGGTTSYADAVKGSFIISRDNAKNTVYLQMISLKPEESAVYYCAAVQWDSSSKYYYWGQGTQVTVSS”, “low polyreactivity”. Consider “QVQLVESGGGLVQAGGSLRLSCAASGFTFRTYAMGWYRQAPGKERELVADISGSGGSTYYADSVKGRFTISRDNAKNTVYLQMISLKPEDTAVYYCAATIYNWGYEREYWGQGTQVTVSS”, for which the “polyreactivity (PSR sort gate)” value is “high polyreactivity”. Regarding “QVQLVESAGGLVQAGASLRLSCDASGSTFVYYDMGWYRQAPGKERELVASISWSGGSTSYSDSVKGRFTISRDNAKNTVYLQMNSLKPEDTAVYYCNKSNPDYDGLAIHAFDYWGQGTQVTVSS”, the “polyreactivity (PSR sort gate)” value was “low polyreactivity”. On to “QVHLVESGGGLVQAGGSLRLSCAASGSIYPYTMGWYRQAPGKERELVAGITRSGGRTYYADSVKGRFTISRDNAKNTVYLQMNSLKPEDTAVYYCAAGTTAWYWSEYYYWGQGTQVTVSS”, for which the “polyreactivity (PSR sort gate)” value is listed as “high polyreactivity”. As for “QVQLVDSGGGLVQAGGSLRLSCAASGSIFRYNDMGWYRQAPGKERELVATITSGTNTYYADSVKGRFTISRDNEKNTVYLQMNSLKPEDTAVYYCAAGYPSWYYGYPYDSWGQGTQVTVSS”, the “polyreactivity (PSR sort gate)” value is reported as “low polyreactivity”. For “QVQLVESGGGLVQAAGSLRLSCAPSGSIYNYTIGWYRQAPGKERELVAAISRSGTRTYYADSVKGRFTISRDNAKNTVYLQMNSLKPEDTAVYYCAARILPPGDNVDDDYWGQGTQVTVSS”, the “polyreactivity (PSR sort gate)” value is “high polyreactivity”. As to “QVQLEESGGGLVQAGGSLRLSCAASGSIFSPNAMGWYRQAPGKERELVAAIDTRDGTTYYADSVKGRFTISRDNAKNTVYLQMNSLKPEDTAVYYCAADQLVGERDYWGQGTQVTVSS”, the “polyreactivity (PSR sort gate)” value was “low polyreactivity”. For “QVQLVESGGGLFQAGGSLRLSCAASGRTFYPNAMGWYRQAPGKERELVAAISWSVGTTHYADSVKGRFTISRDNAKNSVYLQMLSLKPEDTAVYYCNARWYYGVYDYWGQGTQVTVSS”, the “polyreactivity (PSR sort gate)” value is on record as “low polyreactivity”.
